Measurements: doi:10.1101/2022.11.15.516577
Where two headings read alike, the source gives them in different places.

Assays:
Experiment in all cases: single-molecule TIRF colocalisation with deconvolution of colocalisation times
[1] = molecular target: N-terminally SNAP-tagged human β2AR carrying the vasopressin V2 receptor C-tail (SNAP-β2V2)
[2] = molecular target: N-terminally SNAP-tagged human β2AR carrying the vasopressin V2 receptor C-tail (SNAP-β2V2); remark: listed apart in the source
[3] = molecular target: N-terminally SNAP-tagged human β2AR carrying the vasopressin V2 receptor C-tail (SNAP-β2V2); remark: listed apart in the source

Measured: average interaction time

C-terminally Halo-tagged bovine β-arrestin 2 (βArr2-Halo) (from UniProt P32120-2 1-409) (natural protein)
1 s: [1] | [2] | [3]
